Patent US12662542B2, “Agnostic anti-mullerian hormone receptor binding peptides” (OVARES D LLC, priority 2019, dated 2026)
Square brackets hold non-standard residues; d marks the D form. Ends that are not written are not given here.

T1: AMH-R2 (Homo sapiens, UniProt Q16671)
T1 construct: GST
T1 sequence (Q16671 18-573): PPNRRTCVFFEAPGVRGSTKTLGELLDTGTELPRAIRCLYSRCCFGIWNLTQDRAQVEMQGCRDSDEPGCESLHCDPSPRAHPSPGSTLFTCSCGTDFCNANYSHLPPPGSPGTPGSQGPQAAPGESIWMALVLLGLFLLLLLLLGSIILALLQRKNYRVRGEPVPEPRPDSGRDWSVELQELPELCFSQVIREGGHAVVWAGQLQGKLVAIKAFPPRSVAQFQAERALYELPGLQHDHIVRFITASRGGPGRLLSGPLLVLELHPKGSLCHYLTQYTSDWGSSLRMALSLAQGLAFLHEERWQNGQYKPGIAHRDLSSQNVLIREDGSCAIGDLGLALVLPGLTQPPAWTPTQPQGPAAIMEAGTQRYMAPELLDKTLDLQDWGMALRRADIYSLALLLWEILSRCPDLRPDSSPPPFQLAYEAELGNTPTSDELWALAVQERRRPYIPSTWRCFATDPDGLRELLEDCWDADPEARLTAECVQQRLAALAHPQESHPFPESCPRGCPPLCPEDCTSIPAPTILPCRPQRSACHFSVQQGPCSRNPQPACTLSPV

B1: rAMH: recombinant Anti-Müllerian hormone (rAMH), comparator in the mouse study (protein, UniProt P03971 452-560, looked up)
Muellerian-inhibiting factor: SAGATAADGPCALRELSVDLRAERSVLIPETYQANNCQGVCGWPQSDRNPRYGNHVVLLLKMQVRGAALARPPCCVPTAYAGKLLISLSEERISAHHVPNMVATECGCR

Legend:
AMH-R2 = target: T1, AMH-R2; assay: peptide microarray assay identifying AMH receptor binding peptides; conditions: microarray signal
From the text: In view of the several actions of AMH, and because of the need for AMH receptor agonists and/or antagonist that can modify the activity of one or more of the AMH receptors, provided herein are AMH receptor binding peptides that modulate the activity of the AMH receptor, as described herein. Briefly, it was hypothesized that peptides that bind AMH receptors could be generated based on the amino acid sequence of the AMH biding site of the AMH-R2 receptor. More particularly, based on the amino acid sequence of the AMH-R2 that is responsible for binding AMH, as well as the amino acid sequences of AMH-R2 that are near the AMH binding site, a peptide microarray was used to identify candidate AMH receptor binding peptides that can activate AMH-R2 and thus produce similar effects to native AMH.
To identify candidate AMH receptor binding peptides described herein, a custom peptide library composed of replicate copies of a 124,000 17 mer peptide microarray was synthesized (Arizona State University, Tempe, AZ) using the method described in Legutki, J. B., et al., Scalable high-density peptide arrays for comprehensive health monitoring. Nat Commun., volume 5, 4785 (2014). The slide was assembled into an Arrayit 4×24 Hybridization Cassette and each peptide microarray was blocked with 150 uL of 30% human sera in 1×PBST for 1 hour at room temperature with shaking After blocking, the slide was washed 3× with 1×PBST using a Biotek plate washer prior to addition of protein targets. Each protein sample was diluted in 30% human sera in 1×PBST and 150 uL of each sample was dispensed into the appropriate wells in the cassette and incubated for 1 hour at 37 C with rotation at 300 rpm on a ThermoMix™ 500 heater/shaker.
After incubation, the cassette was dismantled, the slide washed 3 times in 1×PBST, rinsed three times with distilled, deionized water (ddH2O), and dried in a centrifuge for 2 minutes at 800 rpm. Secondary antibody (anti-GST, GE Healthcare™) was prepared at 10 nM in 30% human sera in 1×PBST and dispensed onto the slide. The slide was incubated for 1 hour at 37 C with rotation at 300 rpm as before. The slide was then washed 3 times in 1×PBST, rinsed 3 times with ddH2O, and dried in a centrifuge for 2 minutes at 800 rpm. Detection antibody, 10 nM Alexa Flour 647 donkey anti-goat IgG (H+L) (ThermoFisher Scientific™), was prepared in 0.75% casein in 1×PBST and dispensed onto the slide. The slide was covered and incubated for 1 hour at 37 C with rotation as before. The slide was washed 3 times in 1×PBST, rinsed 3 times with ddH2O, and dried in a centrifuge for 2 minutes at 800 rpm. The slide was scanned on an Innopsys™ Inoscan 910AL scanner and the resulting TIFF files were analyzed using the Genepix™ Pro 6.0 software. Data files were exported and analyzed using Microsoft Excel™ and JMP™ software.

[1] = test system: A2780 (endometroid ovarian cancer) cells; assay: MTT cell proliferation assay; format: cell-based; conditions: 5, 10 and 20 μg/ml, 24 hours, vs untreated control
Protocol: (§1) This example describes the effect of the AMH receptor binding peptides from Example 1 on cellular proliferation, in accordance with certain example embodiments. Briefly, the first two AMH receptor binding peptides (SEQ ID NOS:1-2) from Table 1 were tested on four types of AMHR2-expressing, immortalized, chemotherapy-resistant ovarian cancer cells: SKOV-3 (ovarian serous cystadenocarcinoma), EL-1 (epithelial ovarian cancer), A2780 (endometroid ovarian cancer), and MDAH (endometroid ovarian cancer) in an MTT Assay (Trevigen™ MTT Cell Proliferation Assay).
(§2) For each cell line, cells were seeded into Falcon tissue culture treated 96-well plates in a fixed volume of 100 mcl at a density of 8,000 cells/well. […] Each experiment was executed in triplicates. For 3+1 treatments×3 wells+10 extra=22 wells×8000 cells per well, the total number of cells needed per AMH receptor binding peptide/cell line was 176,000. The cells were spun down in a sterile 15 ml conical tube for 5 minutes at 200×g and then resuspended in 2.2 ml of media (100 ul per well×22 wells). 100 mcl of the cell-containing fluid (=8,000 cells) were placed in each well of the 96-well plate. After 24 hours the media was removed from each well and replaced with the 4 treatment media (phenol-free media). At this point, 10 extra wells with media, but no cells, were created per each cell line (10×4=40 wells). The AMH receptor binding peptides (AMHR2BP (SEQ ID NO: 1) or AMHR2BP2 (SEQ ID NO: 2)) were administered in the culture medium and the effects analyzed after 24 hours in culture as percentage reduction of cell replication using an MTT […] assay.

[2] = test system: EL-1 (epithelial ovarian cancer) cells; assay: MTT cell proliferation assay; format: cell-based; conditions: 5, 10 and 20 μg/ml, 24 hours, vs untreated control
Protocol: as §1, §2

[3] = test system: MDAH (endometroid ovarian cancer) cells; assay: MTT cell proliferation assay; format: cell-based; conditions: 5, 10 and 20 μg/ml, 24 hours, vs untreated control
Protocol: as §1, §2

[4] = test system: SKOV-3 (ovarian serous cystadenocarcinoma) cells; assay: MTT cell proliferation assay; format: cell-based; conditions: 5, 10 and 20 μg/ml, 24 hours, vs untreated control
Protocol: as §1, §2

[5] = test system: ovarian follicles of C57BL/6J female mice; assay: in vivo mouse ovary histology, follicle count and cell proliferation
From the text: Knowledge of the developmental landmarks and the highly inbred conformity made C57BL/6J female mice a natural choice for this study. In this mouse strain, puberty is characterized by vaginal opening at approximately 25 days of life, estrus 3-4 days later, and subsequently by regular cycling every 5-6 days. Maturity is considered to be reached at 90 days of life (12 weeks).
Briefly, 24 C57BL mature female mice (18 weeks old) were allocated to four (4) experimental groups: baseline group (6 mice), AMHR2BP (SEQ ID NO: 1) group (6 mice), a recombinant rAMH group (6 mice), and control group (6 mice; 21 weeks of age, that received saline). The six mice in the baseline group were euthanized at the beginning of the experiment and comprised the baseline against which to compare the 2 experimental, and the control, groups. Mice in the AMHR2BP (SEQ ID NO: 1) group received AMHR2BP (SEQ ID NO: 1) at a daily dose of 50 μg/day (BP group); the rAMH group received recombinant AMH (rAMH) at a daily dose of 1.8 μg/day (to obtain 24.0 ng/ml serum level), and the control group received normal saline.
In order to accomplish this task, an osmotic pump was implanted intraperitoneally at time zero. […] The osmotic pump (ALZET Osmotic Pumps, model 1004, Cupertino, CA) administered AMHR2BP (SEQ ID NO: 1) and rAMH with a flow rate (QT) of 0.11 μl/h for 4 weeks, based on a mouse temperature of 36.9° C. and a tissue osmolality of 7.5 atm. The daily AMHR2BP (SEQ ID NO: 1) dose was chosen based on the results of Example 3 (above) and estimated in vitro to in vivo extrapolation (IVIVE), while the rAMH dose was determined as described in reference. Mice in the control group were treated with normal saline by using the same osmotic pump vehicle implanted intraperitoneally. All mice in the 2 experimental, and the control, groups were euthanized 3 weeks into the experiment. All mice underwent a blood draw just prior to euthanasia, and their ovaries were explanted for real-time RT-PCR and histological analyses.
After dissection, one ovary was stored in formalin and embedded in paraffin for immunohistochemical examination of follicular development and count with hematoxylin and eosin staining, while Ki67 slides were used for examination of cell proliferation. The other ovary was frozen for mRNA analysis (see below). Five μm-thick sections were serially cut and every 5th section analyzed for follicular counts. All ovarian cortex specimens where obtained from each group, and at least three sections were analyzed in each tissue specimen. The computerized program used for image analysis, CaseCenter™ by 3DHistech Pathology Information System™ (Version 2.3; Budapest, Hungary), allowed us to examine all the sections at the same time and to accurately count all the follicles in each section without redundancy. For follicle counting, the investigators were blinded to the treatment groups. One oocyte surrounded by a monolayer of flat, or cubic, granulosa cells enclosed by a basement membrane identified a primordial (PDF) and a primary follicle (PRF), respectively. Secondary follicles (SEF) were identified with one oocyte surrounded by multiple layers of cubic granulosa cells, and tertiary follicles (TEF) by fluid accumulation amid the granulosa cells.

luteinized GCs = conditions: rAMH group; cited from earlier work
[6] = mouse ovarian cortex, 3 weeks, i.p. osmotic pump, AMHR2BP 50 μg/day, rAMH 1.8 μg/day

Molecule	Average (AMH-R2; average of Rep 1 and Rep 2)	Rep 1 (AMH-R2; replicate 1)	Rep 2 (AMH-R2; replicate 2)	cell proliferation [1]	cell proliferation [2]	cell proliferation [3]	cell proliferation [4]	PDFs compared with the control (placebo) group ([5]; control group 21 weeks' age)	PRFs compared with the control (placebo) group ([5]; control group 21 weeks' age)	SEFs compared with the control (placebo) group ([5]; control group 21 weeks' age)	TEFs compared with the control (placebo) group ([5]; control group 21 weeks' age)	Corp. Lutea/mm^3 Median [5, 6]	PDF/mm^3 Median [5, 6]	PRF/mm^3 Median [5, 6]	SEF/mm^3 Median [5, 6]	TEF/mm^3 Median [5, 6]	reduction of Ki67 and Caspase3 (luteinized GCs)
NGSSlQAVNrlSGVS (NGSS[dL]QAVN[dR][dL]SGVS) [SEQ ID NO: 2]	65535	65535	65535	reduced cellular proliferation	reduced cellular proliferation	reduced cellular proliferation	reduced cellular proliferation										
B1								maintained	low	lower	lower	7.5 /mm^3	1182 /mm^3	514 /mm^3	1144 /mm^3	871 /mm^3	greater than 30%
